Laboratory results reported in US20250277023A1 (published 2025).

T1: TIGIT (on CHO-TIGIT cells) (UniProt Q495A1 22-244)
T1 chain: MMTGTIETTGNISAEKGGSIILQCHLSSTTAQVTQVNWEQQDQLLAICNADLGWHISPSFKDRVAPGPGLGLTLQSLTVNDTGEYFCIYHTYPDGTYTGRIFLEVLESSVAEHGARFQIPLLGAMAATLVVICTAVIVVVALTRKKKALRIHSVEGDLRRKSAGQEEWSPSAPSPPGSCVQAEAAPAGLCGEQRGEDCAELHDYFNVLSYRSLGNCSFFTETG


Tests used:
[1] = molecular target: T1, TIGIT (on CHO-TIGIT cells); experiment: FACS binding; Fig. 20
[2] = molecular target: T2, PD-L1 (on CHO-PD-L1 cells) (UniProt Q9NZQ7 19-290); experiment: FACS binding; Fig. 26
T2 sequence (Q9NZQ7 19-290): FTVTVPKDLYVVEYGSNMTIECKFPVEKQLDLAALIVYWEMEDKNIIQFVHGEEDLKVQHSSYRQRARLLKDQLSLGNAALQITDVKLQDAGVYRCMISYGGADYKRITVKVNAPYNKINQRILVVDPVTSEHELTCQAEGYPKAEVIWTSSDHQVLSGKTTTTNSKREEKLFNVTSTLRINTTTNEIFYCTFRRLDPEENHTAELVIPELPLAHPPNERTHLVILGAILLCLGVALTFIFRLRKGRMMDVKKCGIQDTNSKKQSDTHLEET

[3] = molecular target: T1, TIGIT (on CHO-TIGIT cells); experiment: FACS blocking of PVR binding to CHO-Tigit; Fig. 27
[4] = molecular target: T2, PD-L1 (on CHO-PD-L1 cells); experiment: FACS binding; Fig. 22

EC50 [1]	EC50 [2]	EC50 [3]	EC50 [4]	Binder
11.3 nM	2.64 nM	50.4 nM		R1262: TIGIT VH-IL2Rα mutant-Fc/TIGIT VL-IL2 mutant/PD-L1_VH-hIgG1/PD-L1 VL-κ-Ig LC (bispecific antibody) chain 1: QVQLVQSGAEVKKPGSSVKVSCKASGYSFTSYWMNWVRQAPGQGLEWIGMIRPSDSETRLNQMFKDRVTITVDKSTSTAYMELSSLRSEDTAVYYCAGIHDYGHGAYWGQGTLVTVSSGGGGSGGGGSGGGGSGGGGCGELCDDDPPEIPHATFKAMAYKEGTMLNCECKRGFRRIKSGSLYMLCTGNSSHSSWDNQCQCTSSATRNTTKQVTPQPEEQKERKTTEMQSPMQPVDQASLPGHCREPPPWENEATERIYHFVVGQMVYYQCVQGYRALHRGPAESVCKMTHGKTRWTQPQLICTGEPKSSDKTHTCPPCPAPELLGGPSVFLFPPKPKDTLMISRTPEVTCVVVDVSHEDPEVKFNWYVDGVEVHNAKTKPREEQYNSTYRVVSVLTVLHQDWLNGKEYKCKVSNKALPAPIEKTISKAKGQPREPQVYTLPPSREEMTKNQVSLTCRVKGFYPSDIAVEWESNGQPENNYKTTPPVLKSDGSFFLASKLTVDKSRWQQGNVFSCSVMHEALHNHYTQKSLSLSPGK chain 2: not shown heavy: EVQLQESGPGLVKPSETLSLTCAVYGDSITSGYWNWIRKPPGKGLEYMGYISYTGSTYQNPSLKSRITFSRDTSKNQYYLKLSSVTAADTATYYCARSRAWIRTYFDYWGQGTLVTVSSASTKGPSVFPLAPSSKSTSGGTAALGCLVKDYFPEPVTVSWNSGALTSGVHTFPAVLQSSGLYSLSSVVTVPSSSLGTQTYICNVNHKPSNTKVDKRVEPKSCDKTHTCPPCPAPELLGGPSVFLFPPKPKDTLMISRTPEVTCVVVDVSHEDPEVKFNWYVDGVEVHNAKTKPREEQYNSTYRVVSVLTVLHQDWLNGKEYKCKVSNKALPAPIEKTISKAKGQPREPQVYTLPPSREEMTKNQVSLWCLVKGFYPSDIAVEWESNGQPENNYDTTPPVLDSDGSFFLYSDLTVDKSRWQQGNVFSCSVMHEALHNHYTQKSLSLSPGK light: EIVLTQSPDFQSVTPKEKVTITCSVSSSISSSNLHWYQQKPDQSPKLLIYGTSNLASGVPSRFSGSGSGTDFTLTINSLEAEDAATYYCQQWSSYPLTFGQGTKLEIKRTVAAPSVFIFPPSDEQLKSGTASVVCLLNNFYPREAKVQWKVDNALQSGNSQESVTEQDSKDSTYSLSSTLTLSKADYEKHKVYACEVTHQGLSSPVTKSFNRGEC
15.7 nM	3.11 nM	336 nM	3.72 nM	R1115: TIGIT_VH_IL2RA/TIGIT_VL_IL2/PD-L1-Fab (bispecific antibody) chain 1: QVQLVQSGAEVKKPGSSVKVSCKASGYSFTSYWMNWVRQAPGQGLEWIGMIRPSDSETRLNQMFKDRVTITVDKSTSTAYMELSSLRSEDTAVYYCAGIHDYGHGAYWGQGTLVTVSSGGGGSGGGGSGGGGSGGGGSGELCDDDPPEIPHATFKAMAYKEGTMLNCECKRGFRRIKSGSLYMLCTGNSSHSSWDNQCQCTSSATRNTTKQVTPQPEEQKERKTTEMQSPMQPVDQASLPGHCREPPPWENEATERIYHFVVGQMVYYQCVQGYRALHRGPAESVCKMTHGKTRWTQPQLICTGEPKSSDKTHTCPPCPAPELLGGPSVFLFPPKPKDTLMISRTPEVTCVVVDVSHEDPEVKFNWYVDGVEVHNAKTKPREEQYNSTYRVVSVLTVLHQDWLNGKEYKCKVSNKALPAPIEKTISKAKGQPREPQVYTLPPSREEMTKNQVSLTCRVKGFYPSDIAVEWESNGQPENNYKTTPPVLKSDGSFFLASKLTVDKSRWQQGNVFSCSVMHEALHNHYTQKSLSLSPGK chain 2: not shown heavy: EVQLQESGPGLVKPSETLSLTCAVYGDSITSGYWNWIRKPPGKGLEYMGYISYTGSTYQNPSLKSRITFSRDTSKNQYYLKLSSVTAADTATYYCARSRAWIRTYFDYWGQGTLVTVSSASTKGPSVFPLAPSSKSTSGGTAALGCLVKDYFPEPVTVSWNSGALTSGVHTFPAVLQSSGLYSLSSVVTVPSSSLGTQTYICNVNHKPSNTKVDKRVEPKSCDKTHTCPPCPAPELLGGPSVFLFPPKPKDTLMISRTPEVTCVVVDVSHEDPEVKFNWYVDGVEVHNAKTKPREEQYNSTYRVVSVLTVLHQDWLNGKEYKCKVSNKALPAPIEKTISKAKGQPREPQVYTLPPSREEMTKNQVSLWCLVKGFYPSDIAVEWESNGQPENNYDTTPPVLDSDGSFFLYSDLTVDKSRWQQGNVFSCSVMHEALHNHYTQKSLSLSPGK light: EIVLTQSPDFQSVTPKEKVTITCSVSSSISSSNLHWYQQKPDQSPKLLIYGTSNLASGVPSRFSGSGSGTDFTLTINSLEAEDAATYYCQQWSSYPLTFGQGTKLEIKRTVAAPSVFIFPPSDEQLKSGTASVVCLLNNFYPREAKVQWKVDNALQSGNSQESVTEQDSKDSTYSLSSTLTLSKADYEKHKVYACEVTHQGLSSPVTKSFNRGEC
